The record followed here is patent CN111732659A.

In test [1] the target is GPC3ΔGPI-FLAG重组蛋白 (Homo sapiens (Human)) (UniProt P51654). The test can be described thus: ELISA on coated GPC3ΔGPI-FLAG after serum incubation of the antibody. (In general: An ELISA detects its analyte on a solid surface through an enzyme-linked reagent.)
Test [2] deals with mCherry-GPC3 (stably expressed on HEK293T cells) (UniProt P51654). The experiment in a line: immunofluorescence colocalisation on HEK293T cells expressing mCherry-GPC3, confocal microscopy.

Molecule HN3-hFc融合抗体 (Fc fusion) returned a decrease of antigen binding (ELISA OD450) after 72 h at 37°C in FBS against 0 h in test [1] of 55.5%.

B1: 纳米抗体G64 (G64-His) (VHH, not shown: small tags and cut ends)
VHH: QVQLVESGGALVQPGGSLRLSCAASGRGADTLSLRWYRQAPGKEREWVCGISWLMTTYSYEDSVKGRFTCSRDDARNTVYLQLNSLKPEDTAVYYCASRPRFLEEQLQVSSYWGQGTQVTVSS
B1: in test [1], the decrease of antigen binding (ELISA OD450) after 72 h at 37°C in FBS against 0 h worked out at 0.6%. The 皮尔森相关系数 (mCherry and Alexa Fluor 488 signals) in test [2] is 0.803.
